Test results taken from paper PMC7847308, “Nanoscopic anatomy of dynamic multi-protein complexes at membranes resolved by graphene-induced energy transfer” (eLife, 2021).
Values belong to the binder of their own block, whether it stands above or below them.

Columns and labels:
Details in all cases: both partners purified
[1] = target: T1, HOPS complex with Vps16 C-terminally fused to yEGFP (S. cerevisiae, UniProt P38959 1-992; Q07468 1-1049; P12868 1-1029; P27801 1-918; Q03308 1-798; P20795 …); experiment: confocal fluorescence imaging and FLIM of recruitment to supported lipid layers; 50 nM yEGFP-fused HOPS added for 5 min at room temperature to DOPC bilayers on glass or monolayers on graphene loaded with 150 nM pYpt7-GTP; washed 5 times with HBS
T1 construct: Vps41, HOPS subunit, S. cerevisiae; Vps39, HOPS subunit, S. cerevisiae; Vps11, HOPS subunit, S. cerevisiae; Vps18, HOPS subunit, S. cerevisiae; Vps16, HOPS subunit, S. cerevisiae; Vps33, HOPS subunit, S. cerevisiae; also called HOPS Vps16-yEGFP; HOPS (Vps16-yEGFP); source: S. cerevisiae, overexpressed, purified (IgG Sepharose, TEV elution); copies: + + + + +

[2] = target: T2, HOPS complex with Vps39 C-terminally fused to yEGFP (S. cerevisiae, UniProt P38959 1-992; Q07468 1-1049; P12868 1-1029; P27801 1-918; Q03308 1-798; P20795 …); experiment: as above
T2 construct: Vps41, HOPS subunit, S. cerevisiae; Vps39, HOPS subunit, S. cerevisiae; Vps11, HOPS subunit, S. cerevisiae; Vps18, HOPS subunit, S. cerevisiae; Vps16, HOPS subunit, S. cerevisiae; Vps33, HOPS subunit, S. cerevisiae; also called HOPS Vps39-yEGFP; yEGFP-tagged HOPS; source: S. cerevisiae, overexpressed, purified (IgG Sepharose, TEV elution); copies: + + + + +

[3] = target: T3, HOPS complex with Vps11 C-terminally fused to yEGFP (S. cerevisiae, UniProt P38959 1-992; Q07468 1-1049; P12868 1-1029; P27801 1-918; Q03308 1-798; P20795 …); experiment: as above
T3 construct: Vps41, HOPS subunit, S. cerevisiae; Vps39, HOPS subunit, S. cerevisiae; Vps11, HOPS subunit, S. cerevisiae; Vps18, HOPS subunit, S. cerevisiae; Vps16, HOPS subunit, S. cerevisiae; Vps33, HOPS subunit, S. cerevisiae; In the single-molecule experiment labelled with 50 pM Dy647-coupled anti-GFP nanobody; also called HOPS Vps11-yEGFP; HOPS Vps11; source: S. cerevisiae, overexpressed, purified (IgG …)

[4] = target: T4, HOPS complex with Vps33 C-terminally fused to yEGFP (S. cerevisiae, UniProt P38959 1-992; Q07468 1-1049; P12868 1-1029; P27801 1-918; Q03308 1-798; P20795 …); experiment: as above
T4 construct: Vps41, HOPS subunit, S. cerevisiae; Vps39, HOPS subunit, S. cerevisiae; Vps11, HOPS subunit, S. cerevisiae; Vps18, HOPS subunit, S. cerevisiae; Vps16, HOPS subunit, S. cerevisiae; Vps33, HOPS subunit, S. cerevisiae; In the single-molecule experiment labelled with 50 pM Dy647-coupled anti-GFP nanobody; also called HOPS Vps33-yEGFP; HOPS Vps33; source: S. cerevisiae, overexpressed, purified (IgG …)

[5] = target: T5, HOPS complex with Vps18 C-terminally fused to yEGFP (S. cerevisiae, UniProt P38959 1-992; Q07468 1-1049; P12868 1-1029; P27801 1-918; Q03308 1-798; P20795 …); experiment: as above
T5 construct: Vps41, HOPS subunit, S. cerevisiae; Vps39, HOPS subunit, S. cerevisiae; Vps11, HOPS subunit, S. cerevisiae; Vps18, HOPS subunit, S. cerevisiae; Vps16, HOPS subunit, S. cerevisiae; Vps33, HOPS subunit, S. cerevisiae; also called HOPS Vps18-yEGFP; yEGFP-tagged HOPS; source: S. cerevisiae, overexpressed, purified (IgG Sepharose, TEV elution); copies: + + + + +

HOPS complex = target: T6, HOPS complex (S. cerevisiae, UniProt P38959 1-992; Q07468 1-1049; P12868 1-1029; P27801 1-918; Q03308 1-798; P20795 …); experiment: FRAP and confocal imaging on supported lipid bilayers; 200 nM mNeon-pYpt7-GTP anchored in glass-supported lipid bilayers, 100 nM HOPS added; room temperature
T6 construct: Vps41, HOPS subunit, S. cerevisiae; Vps39, HOPS subunit, S. cerevisiae; Vps11, HOPS subunit, S. cerevisiae; Vps18, HOPS subunit, S. cerevisiae; Vps16, HOPS subunit, S. cerevisiae; Vps33, HOPS subunit, S. cerevisiae; 650 kDa heterohexamer; the 3HA follows the GAL1 promoter in the genotype; also called homotypic fusion and vacuole protein sorting complex; untagged HOPS; source: S. cerevisiae, …

Mon1-Ccz1 complex = target: T7, Mon1-Ccz1 complex (S. cerevisiae, UniProt P53129 1-644; P38273 1-704); experiment: GIET fluorescence lifetime (FLIM) on graphene-supported lipid monolayers; 200 nM mNeon-pYpt7-GTP anchored in lipid layers on graphene and glass; 100 nM Mon1-Ccz1 or HOPS added for 5 min at room temperature, washed 8 times with HBS; lifetime ratio of mNeon
T7 construct: Mon1, S. cerevisiae; chromosomal locus under the GAL1 promoter; Ccz1, S. cerevisiae; chromosomal locus under the GAL1 promoter, TAP-tagged; Eluted from IgG beads by TEV cleavage; also called GEF; source: S. cerevisiae, overexpressed, purified (IgG Sepharose, TEV elution)
T7 sequence (looked up) 1: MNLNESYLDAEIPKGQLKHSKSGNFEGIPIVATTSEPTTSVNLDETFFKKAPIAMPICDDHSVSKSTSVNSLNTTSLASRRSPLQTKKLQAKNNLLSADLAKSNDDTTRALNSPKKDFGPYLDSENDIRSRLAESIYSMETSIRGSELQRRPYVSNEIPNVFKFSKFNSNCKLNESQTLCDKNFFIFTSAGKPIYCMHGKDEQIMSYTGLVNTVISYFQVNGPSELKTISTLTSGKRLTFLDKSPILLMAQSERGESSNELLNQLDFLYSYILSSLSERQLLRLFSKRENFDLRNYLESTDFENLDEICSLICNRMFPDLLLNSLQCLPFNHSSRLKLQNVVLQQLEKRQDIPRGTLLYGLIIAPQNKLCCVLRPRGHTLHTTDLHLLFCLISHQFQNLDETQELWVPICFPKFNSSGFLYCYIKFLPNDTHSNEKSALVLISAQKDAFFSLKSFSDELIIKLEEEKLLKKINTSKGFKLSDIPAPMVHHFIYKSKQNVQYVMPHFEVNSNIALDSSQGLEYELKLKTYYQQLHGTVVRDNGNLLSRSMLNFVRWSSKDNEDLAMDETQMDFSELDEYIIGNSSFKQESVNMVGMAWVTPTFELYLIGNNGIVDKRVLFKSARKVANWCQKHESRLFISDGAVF
T7 sequence (looked up) 2: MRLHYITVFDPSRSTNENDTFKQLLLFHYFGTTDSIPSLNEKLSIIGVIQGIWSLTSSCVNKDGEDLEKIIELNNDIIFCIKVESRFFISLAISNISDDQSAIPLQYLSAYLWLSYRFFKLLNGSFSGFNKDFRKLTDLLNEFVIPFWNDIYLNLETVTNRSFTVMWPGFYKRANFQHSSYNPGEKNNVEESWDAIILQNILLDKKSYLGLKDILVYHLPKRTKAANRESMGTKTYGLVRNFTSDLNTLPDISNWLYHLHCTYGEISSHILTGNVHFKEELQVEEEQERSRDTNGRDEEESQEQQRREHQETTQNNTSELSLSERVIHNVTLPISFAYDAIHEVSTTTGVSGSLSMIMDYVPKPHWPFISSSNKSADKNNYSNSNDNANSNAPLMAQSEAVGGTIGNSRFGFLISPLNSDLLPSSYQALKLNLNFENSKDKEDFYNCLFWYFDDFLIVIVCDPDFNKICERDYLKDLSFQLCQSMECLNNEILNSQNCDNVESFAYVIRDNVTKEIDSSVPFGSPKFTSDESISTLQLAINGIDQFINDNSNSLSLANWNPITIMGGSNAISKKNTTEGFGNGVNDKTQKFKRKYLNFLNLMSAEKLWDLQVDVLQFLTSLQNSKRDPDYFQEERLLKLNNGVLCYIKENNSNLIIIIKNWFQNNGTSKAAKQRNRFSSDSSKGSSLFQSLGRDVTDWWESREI

- binding result [1]: binds
- binding result [2]: binds
- binding result [3]: binds
- binding result [4]: binds
- binding result [5]: binds
B1: prenylated Ypt7 (natural protein, S. cerevisiae, UniProt P32939 1-208, looked up)
chain: MSSRKKNILKVIILGDSGVGKTSLMHRYVNDKYSQQYKATIGADFLTKEVTVDGDKVATMQVWDTAGQERFQSLGVAFYRGADCCVLVYDVTNASSFENIKSWRDEFLVHANVNSPETFPFVILGNKIDAEESKKIVSEKSAQELAKSLGDIPLFLTSAKNAINVDTAFEEIARSALQQNQADTEAFEDDYNDAINIRLDGENNSCSC
modifications: C-terminal prenyl (geranylgeranyl) group, added by in vitro prenylation
notes: Ypt7, Rab7-like GTPase of S. cerevisiae; pET24d-GST-TEV-Ypt7 is surmised (the other construct carries a C-terminal His6 tag); GDP-loaded with GDI, GTP-loaded on membranes; also called pYpt7; pYpt7-GTP; source: E. coli BL21 (DE3) Rosetta, purified, prenylated in vitro

- binding result (HOPS complex): binds
- binding result (Mon1-Ccz1 complex): binds
B2: prenylated mNeonGreen-Ypt7 (natural protein, S. cerevisiae, UniProt P32939 1-208, looked up)
chain: B1 chain
modifications: C-terminal prenyl (geranylgeranyl) group, added by in vitro prenylation
notes: Ypt7, Rab7-like GTPase of S. cerevisiae; GDP-loaded in the complex with GDI; GTP-loaded when anchored in the lipid layers; also called mNeon-pYpt7; mNeon-Ypt7; source: E. coli BL21 (DE3) Rosetta, purified (Glutathione Sepharose, TEV cleavage), prenylated in vitro; not shown: mNeonGreen (via a GGSGx3 linker), N-terminal, kept
